Test results from article PMC7641127, “MCL1 binds and negatively regulates the transcriptional function of tumor suppressor p73” (Cell Death & Disease, 2020).
*: point of attachment. FITC = O=C1OC2(c3ccc(O)cc3Oc3cc(O)ccc32)c2ccc(NC(=S)*)cc21; Ahx = NCCCCCC(=O)O

Molecular target: recombinant MCL1 (human) (UniProt Q07820)
Experiment: fluorescence polarisation; direct FPA: recombinant MCL1 with FITC-peptide, 30 min, 1× PBS pH 7.4; limit of detection of the probe 5 nM

Sequence of recombinant MCL1 (human) (Q07820 whole entry): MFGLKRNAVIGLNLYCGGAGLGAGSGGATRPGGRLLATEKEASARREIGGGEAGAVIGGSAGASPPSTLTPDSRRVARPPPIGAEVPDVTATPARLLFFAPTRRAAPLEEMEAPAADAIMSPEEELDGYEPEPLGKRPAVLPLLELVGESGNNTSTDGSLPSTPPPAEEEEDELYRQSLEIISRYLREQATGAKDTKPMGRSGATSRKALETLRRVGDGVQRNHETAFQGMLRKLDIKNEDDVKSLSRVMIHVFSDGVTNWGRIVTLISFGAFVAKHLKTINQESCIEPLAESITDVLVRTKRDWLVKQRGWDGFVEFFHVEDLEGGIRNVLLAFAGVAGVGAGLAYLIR

Kd: < 5 nM
B1: FITC-AHX-BAK peptide (peptide)
peptide: {FITC-Ahx}-GQVGRQLAIIGDDINRRYD-NH2
